According to US6114506, “Composition and method for enhancing fibrinolysis” (General Hospital Corporation, dated 2000):

T1: human alpha-2-antiplasmin (human, UniProt P08697, 125I label in the radioimmunoassays of Example 1; biotin in the competition assay of Example 5; unlabelled in the ELISA, plasmin and clot lysis assays)
T1 sequence: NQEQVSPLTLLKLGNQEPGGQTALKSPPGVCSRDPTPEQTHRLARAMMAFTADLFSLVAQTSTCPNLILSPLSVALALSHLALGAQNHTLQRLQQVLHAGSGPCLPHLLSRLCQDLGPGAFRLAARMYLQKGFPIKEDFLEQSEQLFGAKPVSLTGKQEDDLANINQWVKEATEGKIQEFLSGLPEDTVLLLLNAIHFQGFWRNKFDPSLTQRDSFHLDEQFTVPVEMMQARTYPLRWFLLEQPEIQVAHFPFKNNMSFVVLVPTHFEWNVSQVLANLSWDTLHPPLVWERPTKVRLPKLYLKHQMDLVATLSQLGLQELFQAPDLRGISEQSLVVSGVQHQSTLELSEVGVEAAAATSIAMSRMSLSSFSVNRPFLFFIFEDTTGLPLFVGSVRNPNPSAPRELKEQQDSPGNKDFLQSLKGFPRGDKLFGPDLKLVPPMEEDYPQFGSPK

B1: h77A3-1 (humanized 77A3) (antibody, V domains shown)
VH: QIQLVQSGSELKKPGASVKISCKASGYTFTNYGMNWVRQAPGQGLEWMGWINTKSGEPTYAEEFKGRFVFSLDTSVTTAYLQISSLKAEDTAVYFCARWVPGTYAMDYWGQGTTVTVSS
VL: DIQMTQSPSSLSASVGDRVTITCRASGNIHNYLAWYQQKQGKSPQLLVYNAKTLASGVPSRFSGSGSGTDFTLTISSLQPEDFGSHYCQHFWTTPWTFGGGTKLEIK
B2: h77A3-2 (humanized 77A3) (antibody, V domains shown)
VH: QIQLVQSGAEVKKPGASVKISCKASGYTFTNYGMNWVRQAPGQGLEWMGWINTKSGEPTYAEEFKGRFTFTLDTSTSTAYLEIRSLRSDDTAVYFCARW
VL: DIQMTQSPSSLSASVGDRVTITCRASGNIHNYLAWYQQKQGKSPQLLVYNAKTLASGVPSRFSGSGSGTDFTLTISSLQPEDFGSHY

Assays:
[1] = target: T1, human alpha-2-antiplasmin; assay: ELISA: plates coated with α2-antiplasmin (American Diagnostica), anti-human kappa conjugate
[2] = target: T1, human alpha-2-antiplasmin

Row | Binder | binding result [1] | plasmin assay with chromogenic substrate: loss in activity [2] [%]
1 | B1 | binds | 
2 | B2 |  | 20 to 30
